Values of other authors in patent US20240247069A1, “FGFR3 BINDING MOLECULES AND METHODS OF USE THEREOF” (Regeneron Pharmaceuticals, Inc., priority 2023, published 2024).
Substitutions are numbered along the chain they refer to.

B1: MS-Pro-55: anti-FGFR3 Ig-like domain 3 antibody of WO 2002/102972 A2; VH SEQ ID NO:44, VL SEQ ID NO:45 (antibody, V domains shown)
VH: QVQLVQSGAEVKKPGASVKVSCKASGYTFTSYYMHWVRQAPGQGLEWMGWINPNSGGTNYAQKFQGRVTMTRDTSISTAYMELSSLRSEDTAVYYCARSMNSTMYWYLRRVLFDHWGQGTLVTVSS
VL: DIALTQPASVSGSPGQSITISCTGTSSDVGGYNYVSWYQQHPGKAPKLMIYDVSNRPSGVSNRFSGSKSGNTASLTISGLQAEDEADYYCQSYDMYNYIVFGGGTKLTVLGQ
B2: PRQ-055: anti-FGFR3 IIIc antibody of WO 2006/048877 A2; VH SEQ ID NO:44, VL SEQ ID NO:45 (antibody, V domains shown)
VH: B1 VH
VL: B1 VL
B3: PRQ-026: anti-FGFR3 IIIc antibody of WO 2006/048877 A2; VH SEQ ID NO:36, VL SEQ ID NO:37 (antibody, V domains shown)
VH: QVQLVQSGAEVKKPGASVKVSCKASGYTFTSYYMHWVRQAPGQGLEWMGWINPNSGGTNYAQKFQGRVTMTRDTSISTAYMELSSLRSEDTAVYYCARGYWYAYFTYINYGYFDNWGQGTLVTVSS
VL: DIALTQPASVSGSPGQSITISCTGTSSDVGGYNYVSWYQQHPGKAPKLMIYDVSNRPSGVSNRFSGSKSGNTASLTISGLQAEDEADYYCQSYDNNSDWFGGGTKLTVLGQ
B4: PRQ-029: anti-FGFR3 IIIc antibody of WO 2006/048877 A2; VH SEQ ID NO:40, VL SEQ ID NO:49 (antibody, V domains shown)
VH: QVQLVQSGAEVKKPGASVKVSCKASGYTFTSYYMHWVRQAPGQGLEWMGWINPNSGGTNYAQKFQGRVTMTRDTSISTAYMELSSLRSEDTAVYYCARTWQYSYFYYLDGGYYFDIWGQGTLVTVSS
VL: DIVLTQSPATLSLSPGERATLSCRASQSVSSSYLAWYQQKPGQAPRLLIYGASSRATGVPARFSGSGSGTDFTLTISSLEPEDFATYYCQQTNNAPVTFGQGTKVEIKRT
B5: MS-Pro-54: anti-FGFR3 Ig-like domain 3 antibody of WO 2002/102972 A2; VH SEQ ID NO:42, VL SEQ ID NO:43 (antibody, V domains shown)
VH: QVQLVQSGAEVKKPGASVKVSCKASGYTFTSYYMHWVRQAPGQGLEWMGWINPNSGGTNYAQKFQGRVTMTRDTSISTAYMELSSLRSEDTAVYYCARNMAYTNYQYVNMPHFDYWGQGTLVTVSS
VL: DIELTQPPSVSVAPGQTARISCSGDALGDKYASWYQQKPGQAPVLVIYDDSDRPSGIPERFSGSNSGNTATLTISGTQAEDEADYCQSYDYFKLVFGGGTKLTVLGQ
B6: PRQ-054: anti-FGFR3 IIIc antibody of WO 2006/048877 A2; VH SEQ ID NO:42, VL SEQ ID NO:50 (antibody, V domains shown)
VH: B5 VH
VL: DIELTQPPSVSVAPGQTARISCSGDALGDKYASWYQQKPGQAPVLVIYDDSDRPSGIPERFSGSNSGNTATLTISGTQAEDEADYYCQSYDYFKLVFGGGTKLTVLGQ
B7: 20B4: anti-FGFR3 domain 3 antibody of WO 2010/002862 A2; VH SEQ ID NO:57, VL SEQ ID NO:58 (antibody, V domains shown)
VH: EIQLQQSGPELVKPGASVKVSCKASGYSLTDYNMYWVKQSHGKSLEWIGYIDPYNGGTSYNQKFKGKATLTVDKSSSTAFMHLNSLTSEDSAVYYCARSLGPDFDYWGQGTTLTVSS
VL: QIVLTQSPAIMSASPGEKVTMTCSASSSVNYMHWYQQKSGTSPKRWIYDTSKLASGVPARFSGSGSGTSYSLTISSMEAEDTATYYCQQWNSNPLTFGAGTKLELK
B8: 15D8: anti-FGFR3 domain 3 antibody of WO 2010/002862 A2; VH SEQ ID NO:51, VL SEQ ID NO:52 (antibody, V domains shown)
VH: EIQLQQSGPELVKPGASVKVSCKASGYAFTSYNMYWVKQSHGKSLEWIGYIDPYNGGTSYNQKFKGKATLTVDKSSSTAYMHLNSLTSEDSAVYYCAREGGNYEAWFAYWGQGTLVTVSA
VL: QIVLTQSPALMSASPGEKVTMTCSASSSVSYMYWYQQKPRSSPKPWIYLTSYLASGVPARFSGSGSGTSYSLTISSMEAEDAATYYCQQWSSYPLTFGAGTKLELK
B9: 2G4: anti-FGFR3 domain 3 antibody of WO 2010/002862 A2; VH SEQ ID NO:55, VL SEQ ID NO:54 (antibody, V domains shown)
VH: B8 VH with S59R, Y60D
VL: B8 VL with Y52N, Y93N
B10: 4E7(7D12): anti-FGFR3 domain 3 antibody of WO 2010/002862 A2; VH SEQ ID NO:56, VL SEQ ID NO:54 (antibody, V domains shown)
VH: B8 VH with S59R
VL: B8 VL with Y52N, Y93N
B11: 27H2: anti-FGFR3 domain 3 antibody of WO 2010/002862 A2; VH SEQ ID NO:53, VL SEQ ID NO:54 (antibody, V domains shown)
VH: B8 VH with S59R, L70M
VL: B8 VL with Y52N, Y93N
B12: Hu15D8: anti-FGFR3 domain 3 antibody of WO 2010/002862 A2; VH SEQ ID NO:59, VL SEQ ID NO:60 (antibody, V domains shown)
VH: EVQLVQSGAEVKKPGESLKISCKGSGYSFTSYNMYWVRQMPGKGLEWMGYIDPYNGGTSYNQKFKGKATLTVDKSISTAYLQWSSLKASDTAMYYCAREGGNYEAWFAYWGQGTLVTVSS
VL: DIQLTQSPSSLSASVGDRVTITCSASSSVSYMYWFQQKPGKAPKPLIYLTSYLASGVPSRFSGSGSGTDFTLTISSLQPEDFATYYCQQWSSYPLTFGGGTKVEIK
B13: PRQ-001: anti-FGFR3 domain 2 antibody of WO 2006/048877 A2; VH SEQ ID NO:46, VL SEQ ID NO:29 (antibody, V domains shown)
VH: QVQLQQSGPGLVKPSQTLSLTCAISGDSVSSNSAAWNWIRQSPGRGLEWLGRTYYRSKWYNDYAVSVKSRITINPDTSKNQFSLQLNSVTPEDTAVYYCARSYYPDFDYWGQGTLVTVSS
VL: DIELTQPPSVSVAPGQTARISCSGDALGDKYASWYQQKPGQAPVLVIYDDSDRPSGIPERFSGSNSGNTATLTISGTQAEDEADYYCQSYDGPDLWVFGGGTKLTVLGQ
B14: PRQ-002: anti-FGFR3 domain 2 antibody of WO 2006/048877 A2; VH SEQ ID NO:24, VL SEQ ID NO:25 (antibody, V domains shown)
VH: QVQLVQSGAEVKKPGASVKVSCKASGYTFTSYYMHWVRQAPGQGLEWMGWINPNSGGTNYAQKFQGRVTMTRDTSISTAYMELSSLRSEDTAVYYCARDFLGYEFDYWGQGTLVTVSS
VL: B13 VL with G92Y, P93S, D94A, L95D, W96Y
B15: VH: SEQ ID NO: 7 of PCT Publication No: WO 2010/048026 A2: unnamed anti-FGFR3 Ig-like domain 2 antibody of WO 2010/048026 A2; VH SEQ ID NO:61, VL SEQ ID NO:62 (antibody, V domains shown)
VH: EVQLVQSGAEVKKPGASVKVSCKASGYMFTSYGISWVRQAPGQGLEWMGWVSTYNGDTNYAQKFQGRVTVTTDTSTSTAYMELRSLRSEDTAVYYCARVLGYYDSIDGYYYGMDVWGQGTTVTVSS
VL: QSVLTQPPSLSVAPGKTATFTCGGNNIGDKSVHWYRQKPGQAPVLVMYLDTERPSGIPERMSGSNFGNTATLTITRVEAEDEADYYCQVWDSGSDHVVFGGGTKLTVLG
B16: PRQ-012: anti-FGFR3 domain 2 antibody of WO 2006/048877 A2; VH SEQ ID NO:47, VL SEQ ID NO:27 (antibody, V domains shown)
VH: QVQLKESGPALVKPTQTLTLTCTFSGFSLSTSGVGVGWIRQPPGKALEWLALIDWDDDKYYSTSLKTRLTISKDTSKNQVVLTMTNMDPVDTATYYCARYHSWYEMGYYGSTVGYMFDYWGQGTLVTVSS
VL: B6 VL with Y92F, F93D, K94F, L95A
B17: MS-PRQ-12: anti-FGFR3 Ig-like domain 2 antibody of WO 2002/102972 A2; VH SEQ ID NO:26, VL SEQ ID NO:27 (antibody, V domains shown)
VH: QVQLKESGPALVKPQTLTLTCTFSGFSLSTSGVGVGWIRQPPGKALEWLALIDWDDDKYYSTSLKTRLTISKDTSKNQVVLTMTNMDPVDTATYYCARYHSWYEMGYYGSTVGYMFDYWGQGTLVTVSS
VL: B6 VL with Y92F, F93D, K94F, L95A

test system: FGFR3; details: Table T-3, exemplary FGFR3 D3 binding sequences from cited PCT publications

Molecule	Activity
B1	Antagonistic
B2	Antagonistic
B3	Antagonistic
B4	Antagonistic
B5	Antagonistic
B6	Antagonistic
B7	Antagonistic
B8	Antagonistic
B9	Antagonistic
B10	Antagonistic
B11	Antagonistic
B12	Antagonistic

same assay, conditions: literature antibodies, sequences from cited PCT publications

Molecule	Activity
B1	Antagonistic
B2	Antagonistic
B3	Antagonistic
B4	Antagonistic
B5	Antagonistic
B6	Antagonistic
B13	Antagonistic
B14	Antagonistic
B15	Antagonistic
B7	Antagonistic
B8	Antagonistic
B9	Antagonistic
B10	Antagonistic
B11	Antagonistic
B12	Antagonistic
B16	Antagonistic
B17	Antagonistic
